Eight molecules from PMC4060006, “SM proteins Sly1 and Vps33 co-assemble with Sec17 and SNARE complexes to oppose SNARE disassembly by Sec18” (eLife, 2014) can be followed below.

B2: GST-Sed5 SNARE domain (aa170-319) (domain or fragment, S. cerevisiae, UniProt Q01590 170-319, looked up)
chain: ANKDRWQKLTTDTGHAPADDQTQSNHAADLTTYNNSNPFMTSLLDESSEKNNNSSNQGELSFPQNDSQLMLMEEGQLSNNVYLQERNRAVETIESTIQEVGNLFQQLASMVQEQGEVIQRIDANVDDIDLNISGAQRELLKYFDRIKSNR
notes: Sed5, Golgi Qa-SNARE, S. cerevisiae, aa170-319, lacks the N-peptide, the Habc domain and the transmembrane domain; also called Golgi Qa-SNARE lacking N-peptide and Habc domain; not shown: GST, N-terminal, kept
B4: His6-Sec22 (soluble domain, aa1-188) (domain or fragment, S. cerevisiae, UniProt P22214 1-188, looked up)
chain: MIKSTLIYREDGLPLCTSVDNENDPSLFEQKQKVKIVVSRLTPQSATEATLESGSFEIHYLKKSMVYYFVICESGYPRNLAFSYLNDIAQEFEHSFANEYPKPTVRPYQFVNFDNFLQMTKKSYSDKKVQDNLDQLNQELVGVKQIMSKNIEDLLYRGDSLDKMSDMSSSLKETSKRYRKSAQKINFD
notes: Sec22, Golgi R-SNARE, S. cerevisiae, soluble domain aa1-188; also called Golgi R-SNARE; source: E. coli (pRIL plasmid), purified (Ni-NTA); not shown: His6, N-terminal, kept
B6: Vam3-GST (cytoplasmic domain of Vam3, aa1-264) (domain or fragment, S. cerevisiae, UniProt Q12241 1-264, looked up)
chain: MSFFDIEAQSSKGNSQQEPQFSTNQKTKELSNLIETFAEQSRVLEKECTKIGSKRDSKELRYKIETELIPNCTSVRDKIESNILIHQNGKLSADFKNLKTKYQSLQQSYNQRKSLFPLKTPISPGTSKERKDIHPRTEAVRQDPESSYISIKVNEQSPLLHNEGQHQLQLQEEQEQQQQGLSQEELDFQTIIHQERSQQIGRIHTAVQEVNAIFHQLGSLVKEQGEQVTTIDENISHLHDNMQNANKQLTRADQHQRDRNKCGK
notes: Vam3, vacuole Qa-SNARE, S. cerevisiae, cytoplasmic domain aa1-264, no transmembrane domain; TEV site between SNARE and GST; also called Vam3 cytoplasmic domain; vacuole Qa-SNARE; not shown: GST, C-terminal, kept

What all share (conditions): both partners purified
The target of assay [1] is B6. The experiment in a line: pull-down; re-assembly with added SNAREs: as a9, but soluble Qb, Qc and R-SNAREs (~3 µM each) added along with the EDTA quench, 30 min at 30°C.
Assay [2] addresses B4. The assay is described as above.
The target in assay [3] is T1, Sly1 (full length, aa1-667) (S. cerevisiae, UniProt P22213 1-666).
T1 construct: Sly1, Golgi SM protein, S. cerevisiae, printed as full-length aa1-667; construct His6-(tev)-Sly1; as I recall the UniProt entry has 666 residues; the printed 667 may count the stop codon; also called His6-Sly1; Golgi SM protein; source: E. coli (pRIL plasmid), purified (Ni-NTA)
T1 sequence (looked up): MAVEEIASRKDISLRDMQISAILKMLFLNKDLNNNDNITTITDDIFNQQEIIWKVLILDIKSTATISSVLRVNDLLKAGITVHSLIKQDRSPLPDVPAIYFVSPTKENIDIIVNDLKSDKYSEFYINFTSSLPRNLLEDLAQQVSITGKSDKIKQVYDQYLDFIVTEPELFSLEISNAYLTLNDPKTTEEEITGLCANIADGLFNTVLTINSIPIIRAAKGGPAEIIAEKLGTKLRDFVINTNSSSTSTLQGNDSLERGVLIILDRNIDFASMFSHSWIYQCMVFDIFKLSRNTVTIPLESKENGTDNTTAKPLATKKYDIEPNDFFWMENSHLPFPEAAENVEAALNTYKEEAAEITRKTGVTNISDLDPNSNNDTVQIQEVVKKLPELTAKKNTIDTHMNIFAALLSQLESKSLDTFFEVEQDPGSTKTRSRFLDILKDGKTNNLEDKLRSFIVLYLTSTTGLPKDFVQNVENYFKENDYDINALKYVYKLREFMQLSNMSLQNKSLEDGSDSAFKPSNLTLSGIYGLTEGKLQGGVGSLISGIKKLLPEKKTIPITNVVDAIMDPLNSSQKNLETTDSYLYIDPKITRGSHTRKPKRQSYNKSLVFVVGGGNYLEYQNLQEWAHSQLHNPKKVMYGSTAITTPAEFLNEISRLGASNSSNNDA
The experiment in a line: pull-down; SNARE complexes (500 nM) on immobilised Qa-SNARE pre-incubated with Sec17 (20 µM) and Sly1 (10 µM) or Vps33 (2.5 µM) 60 min at 30°C in Disassembly Buffer (SM Assay Buffer, 1 mM ATP, 2 mM MgCl2), then Sec18 (300 nM); what stayed on the resin after complete disassembly, SDS-PAGE.

Assay [4] addresses T2, GST-Sed5 full cytoplasmic domain (aa1-319) (S. cerevisiae, UniProt Q01590 1-319).
T2 construct: Sed5, Golgi Qa-SNARE, S. cerevisiae, full cytoplasmic domain aa1-319 with N-peptide and Habc segments, no transmembrane domain; also called GST-Sed5FL; Sed5FL; not shown: GST, N-terminal, kept
T2 sequence (looked up): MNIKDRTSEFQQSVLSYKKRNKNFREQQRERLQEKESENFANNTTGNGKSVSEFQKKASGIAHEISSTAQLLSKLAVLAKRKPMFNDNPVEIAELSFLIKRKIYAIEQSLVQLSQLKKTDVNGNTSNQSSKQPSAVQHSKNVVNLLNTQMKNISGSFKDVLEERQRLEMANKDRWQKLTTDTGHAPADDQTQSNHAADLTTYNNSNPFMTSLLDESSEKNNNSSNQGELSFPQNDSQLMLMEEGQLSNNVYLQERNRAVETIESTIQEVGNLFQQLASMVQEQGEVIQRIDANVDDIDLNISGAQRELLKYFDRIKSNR
Briefly: pull-down; SNARE complex assembly: 125 pmol GST-tagged Qa-SNARE on glutathione sepharose 4B; >=fivefold molar excess of Qb-, Qc- and R-SNAREs overnight at 4°C; SM Assay Buffer (20 mM HEPES, 150 mM NaCl, 2 mM 2-mercaptoethanol, 0.05% Anapoe-X-100, pH 7.4); washed.

Assay [5] has as its target B6. The assay is described as above.
Another assay addresses T3, Vps33 (S. cerevisiae, UniProt P20795 1-691).
T3 construct: Vps33, SM protein of the vacuole, S. cerevisiae; also called vacuole SM protein; late endolysosomal SM; source: insect cells, Baculovirus system, purified
T3 sequence (looked up): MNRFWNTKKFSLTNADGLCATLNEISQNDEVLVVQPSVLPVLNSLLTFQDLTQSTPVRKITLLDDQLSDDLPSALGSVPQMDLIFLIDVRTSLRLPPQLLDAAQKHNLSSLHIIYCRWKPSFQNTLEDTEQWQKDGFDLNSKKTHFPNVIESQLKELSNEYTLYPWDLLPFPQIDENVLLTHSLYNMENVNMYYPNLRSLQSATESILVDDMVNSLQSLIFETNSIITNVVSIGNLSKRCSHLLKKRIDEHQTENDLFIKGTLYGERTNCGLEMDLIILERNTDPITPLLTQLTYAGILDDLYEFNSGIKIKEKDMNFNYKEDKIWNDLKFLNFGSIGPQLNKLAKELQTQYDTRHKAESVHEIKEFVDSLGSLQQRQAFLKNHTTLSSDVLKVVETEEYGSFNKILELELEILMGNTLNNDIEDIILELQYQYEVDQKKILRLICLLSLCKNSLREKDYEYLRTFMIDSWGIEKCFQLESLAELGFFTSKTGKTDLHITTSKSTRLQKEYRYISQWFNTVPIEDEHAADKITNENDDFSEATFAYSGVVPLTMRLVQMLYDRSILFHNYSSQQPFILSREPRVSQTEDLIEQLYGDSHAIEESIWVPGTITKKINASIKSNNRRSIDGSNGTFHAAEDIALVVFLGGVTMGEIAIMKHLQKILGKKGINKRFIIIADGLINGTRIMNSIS
Briefly: pull-down; SNARE complexes (500 nM) on immobilised Qa-SNARE pre-incubated with Sec17 (20 µM) and Sly1 (10 µM) or Vps33 (2.5 µM) 60 min at 30°C in Disassembly Buffer (SM Assay Buffer, 1 mM ATP, 2 mM MgCl2), then Sec18 (300 nM); what stayed on the resin after complete disassembly, SDS-PAGE.

The target in assay [6] is B2. The experiment in a line: pull-down; re-assembly with added SNAREs: as a9, but soluble Qb, Qc and R-SNAREs (~3 µM each) added along with the EDTA quench, 30 min at 30°C.

B1: His6-GFP-Vam7 SNARE domain (aa190-316) (domain or fragment, S. cerevisiae, UniProt P32912 190-316, looked up)
chain: PSTEVTRRAALLRSLLKECDDIGTANIAQDRGRLLGVATSDNSSTTEVQGRTNNDLQQGQMQMVRDQEQELVALHRIIQAQRGLALEMNEELQTQNELLTALEDDVDNTGRRLQIANKKARHFNNSA
notes: Vam7, vacuole Qc-SNARE, S. cerevisiae, SNARE domain aa190-316; also called vacuole Qc-SNARE; source: E. coli (pRIL plasmid), purified (Ni-NTA); not shown: His6, N-terminal, kept; GFP (A207K), N-terminal, kept
Regarding B1, the binding result in assay [1] was “binds”.
For B2, the binding result in assay [2] and in assay [3] was “binds” in each case.

B3: His6-Nyv1 (soluble domain, aa1-231) (domain or fragment, S. cerevisiae, UniProt Q12255 1-231, looked up)
chain: MKRFNVSYVEVIKNGETISSCFQPFQKNENYGTITSANEQITPVIFHNLIMDMVLPKVVPIKGNKVTKMSMNLIDGFDCFYSTDDHDPKTVYVCFTLVDMPKILPIRILSGLQEYESNATNELLSSHVGQILDSFHEELVEYRNQTLNSSGNGQSSNGNGQNTISDIGDATEDQIKDVIQIMNDNIDKFLERQERVSLLVDKTSQLNSSSNKFRRKAVNIKEIMWWQKVKN
notes: Nyv1, vacuole R-SNARE, S. cerevisiae, soluble domain aa1-231; also called vacuole R-SNARE; source: E. coli (pRIL plasmid), purified (Ni-NTA); not shown: His6, N-terminal, kept
Regarding B3, in assay [1], the binding result is “binds”.
For B4, the binding result in assay [4] was “binds”.

B5: His7-MBP-Vti1 (soluble domain, aa1-194) (domain or fragment, S. cerevisiae, UniProt Q04338 1-194, looked up)
chain: MSSLLISYESDFKTTLEQAKASLAEAPSQPLSQRNTTLKHVEQQQDELFDLLDQMDVEVNNSIGDASERATYKAKLREWKKTIQSDIKRPLQSLVDSGDRDRLFGDLNASNIDDDQRQQLLSNHAILQKSGDRLKDASRIANETEGIGSQIMMDLRSQRETLENARQTLFQADSYVDKSIKTLKTMTRRLVANK
notes: Vti1, vacuole Qb-SNARE, S. cerevisiae, soluble domain aa1-194; also called vacuole Qb-SNARE; source: E. coli (pRIL plasmid), purified (Ni-NTA); not shown: His7, N-terminal, kept; MBP, N-terminal, kept
On to B5, for which the binding result in assay [5] is “binds”.
Consider B6, for which the binding result with Vps33 was “binds”.

B7: His6-Bos1 (soluble domain, aa1-222) (domain or fragment, S. cerevisiae, UniProt P25385 1-222, looked up)
chain: MNALYNHAVKQKNQLQQELARFEKNSVTAPISLQGSISATLVSLEKTVKQYAEHLNRYKEDTNAEEIDPKFANRLATLTQDLHDFTAKFKDLKQSYNENNSRTQLFGSGASHVMDSDNPFSTSETIMNKRNVGGASANGKEGSSNGGGLPLYQGLQKEQSVFERGNAQLDYILEMGQQSFENIVEQNKILSKVQDRMSNGLRTLGVSEQTITSINKRVFKDK
notes: Bos1, Golgi Qb-SNARE, S. cerevisiae, soluble domain aa1-222; also called Golgi Qb-SNARE; source: E. coli Rosetta2 pLys, purified (Ni-NTA); not shown: His6, N-terminal, kept
Consider B7, for which the binding result in assay [4] is “binds”.

B8: His7-MBP-Bet1 (soluble domain, aa1-123) (domain or fragment, S. cerevisiae, UniProt P22804 1-123, looked up)
chain: MSSRFAGGNAYQRDTGRTQLFGPADGSNSLDDNVSSALGSTDKLDYSQSTLASLESQSEEQMGAMGQRIKALKSLSLKMGDEIRGSNQTIDQLGDTFHNTSVKLKRTFGNMMEMARRSGISIK
notes: Bet1, Golgi Qc-SNARE, S. cerevisiae, soluble domain aa1-123; also called Golgi Qc-SNARE; source: E. coli (pRIL plasmid), purified (Ni-NTA); not shown: His7, N-terminal, kept; MBP, N-terminal, kept
Consider B8, for which the binding result in assay [6] and in assay [4] was “binds” throughout.
